These results are taken from publication PMC4230587.

The target in this assay is RSA-2 (C. elegans (endogenous in embryos)) (UniProt G5EFV3). As to the kind of experiment: co-IP.
Chain of UniProt G5EFV3 (G5EFV3 whole entry): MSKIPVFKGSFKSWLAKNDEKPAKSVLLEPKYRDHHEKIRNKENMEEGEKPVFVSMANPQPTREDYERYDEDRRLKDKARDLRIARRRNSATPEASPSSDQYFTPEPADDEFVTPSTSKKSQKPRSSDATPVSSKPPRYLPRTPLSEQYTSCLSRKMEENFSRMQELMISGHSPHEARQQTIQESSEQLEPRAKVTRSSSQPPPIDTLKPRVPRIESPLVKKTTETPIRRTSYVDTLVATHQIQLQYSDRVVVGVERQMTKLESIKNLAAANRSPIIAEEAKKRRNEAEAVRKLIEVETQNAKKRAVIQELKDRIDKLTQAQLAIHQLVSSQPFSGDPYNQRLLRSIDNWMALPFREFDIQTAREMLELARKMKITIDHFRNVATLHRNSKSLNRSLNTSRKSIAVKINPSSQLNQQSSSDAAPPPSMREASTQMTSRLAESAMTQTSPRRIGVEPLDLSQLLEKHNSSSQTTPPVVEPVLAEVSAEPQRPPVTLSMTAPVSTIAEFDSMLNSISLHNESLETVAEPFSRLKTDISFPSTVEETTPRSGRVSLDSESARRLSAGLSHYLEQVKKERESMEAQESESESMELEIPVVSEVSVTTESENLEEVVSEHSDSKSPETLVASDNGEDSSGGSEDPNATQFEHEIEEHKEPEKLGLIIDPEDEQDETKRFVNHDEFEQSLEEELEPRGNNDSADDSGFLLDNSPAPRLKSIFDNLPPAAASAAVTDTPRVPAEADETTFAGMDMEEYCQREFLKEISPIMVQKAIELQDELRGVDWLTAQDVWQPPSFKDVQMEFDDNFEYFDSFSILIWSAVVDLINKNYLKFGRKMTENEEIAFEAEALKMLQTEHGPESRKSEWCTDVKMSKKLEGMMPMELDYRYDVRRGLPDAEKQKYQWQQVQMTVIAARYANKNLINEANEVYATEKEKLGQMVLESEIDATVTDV

Consider “SPD-5 (from UniProt P91349 1-1198) (natural protein)”, for which the percent of total protein co-immunoprecipitated came to 20%.
